Laboratory results: paper PMC8263732, “M1BP cooperates with CP190 to activate transcription at TAD borders and promote chromatin insulator activity” (Nature Communications, 2021)

T1: Suppressor of Hairy wing [Su(Hw)] (Drosophila (endogenous in 0-24 h Oregon …, UniProt P08970 1-941))
T1 construct: endogenous protein in embryonic nuclear extract; source: endogenous, nuclear extract of 0-24 h Drosophila embryos
T1 sequence (looked up): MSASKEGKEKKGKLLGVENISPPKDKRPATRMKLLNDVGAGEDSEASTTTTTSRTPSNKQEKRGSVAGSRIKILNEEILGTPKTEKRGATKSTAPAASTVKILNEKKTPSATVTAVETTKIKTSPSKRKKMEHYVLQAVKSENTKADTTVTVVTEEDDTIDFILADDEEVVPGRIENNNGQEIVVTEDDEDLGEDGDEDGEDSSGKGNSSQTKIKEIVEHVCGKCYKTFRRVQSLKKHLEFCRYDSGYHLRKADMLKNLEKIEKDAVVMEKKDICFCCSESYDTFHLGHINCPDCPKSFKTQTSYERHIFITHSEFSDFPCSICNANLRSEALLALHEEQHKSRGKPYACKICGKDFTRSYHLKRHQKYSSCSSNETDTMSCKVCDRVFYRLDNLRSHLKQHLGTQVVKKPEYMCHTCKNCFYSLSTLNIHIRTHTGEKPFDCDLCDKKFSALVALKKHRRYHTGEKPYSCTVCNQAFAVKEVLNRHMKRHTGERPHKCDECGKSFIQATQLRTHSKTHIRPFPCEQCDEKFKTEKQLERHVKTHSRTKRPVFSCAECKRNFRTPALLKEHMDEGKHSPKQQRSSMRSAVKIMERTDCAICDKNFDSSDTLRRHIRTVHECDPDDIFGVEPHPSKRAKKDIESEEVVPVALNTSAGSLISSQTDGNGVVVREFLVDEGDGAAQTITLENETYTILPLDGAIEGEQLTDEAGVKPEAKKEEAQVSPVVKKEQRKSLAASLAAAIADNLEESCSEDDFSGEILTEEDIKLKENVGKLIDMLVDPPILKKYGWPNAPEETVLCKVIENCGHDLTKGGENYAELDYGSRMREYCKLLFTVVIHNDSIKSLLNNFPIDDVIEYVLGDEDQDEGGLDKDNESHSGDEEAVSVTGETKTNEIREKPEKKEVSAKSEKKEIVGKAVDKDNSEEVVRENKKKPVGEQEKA

B1: Motif 1 Binding Protein (M1BP) (natural protein, UniProt Q9VHM3 1-418, looked up)
chain: MSKSALKHLKSTCRVCAKYASNKRSPKLFERSNTKMIDNIEALTGLRLENYGCLPDQICECCSMELASAVKLRERCIAAQRELLLGLTEEQRQGISAFYRAAVMGEDIVQTVKTPDDDEVYATYQEIVLEEPKEEIDDTKVEYDNTYYEVAEGHAGEDDAASLIEEADYDSIMAEDEEQQQTLELDEDTELIVGDVNDAYVYDSDDEVAVLDNVLDDEYEHENIVVKKCSLPPKPKVRSDDARRRGTGGVYICEQCGNHIKGRMAFELHCRRHRGDKQFGCELCQSRFCTTSELKRHMRKHTGERPFACKYCGRCFTDYTTRVKHERTHTNERPYVCGTCGKAFTTGYILKNHMLIHSGERAYRCELCDKSFMLPTHLSTHFRSGVHKRHLEKAEMKQVLEQEQKRELKEEEEDSLHI
notes: endogenous protein in embryonic nuclear extract; source: endogenous, nuclear extract of 0-24 h Drosophila embryos
B2: Centrosomal protein 190 (CP190) (natural protein, UniProt Q24478 1-1096, looked up)
chain: MGEVKSVKVDNWGVFFLQKLQNFFNKTDYCDLTLQFRDNSQLKVHRLVLSACTDYFNVLEQTCEIVDDALIMPNEFQADVVVPIVNFMYTGTLEFELKMYGKLLRTAKEMNMTVLLKLLEAHRRTMENVNRQQRPPSPKGIRRRTVGQPSSGLPQQRVLGPSPQSRNVATPIAQRANTQRGSTGNTMSRTSGGSNRSPYGDSSNVKQEPTSPFEQLRKGYNNNKRPAQTSLLSPPSKKPSLEEVKEFAEQQRMRKQIAAEYGDNDPEYDGGMLYDDVHAGDDDDDDMPPQPSTSKQQSPQGTQTQLEHGSTTIILKQDSPSQTPTIIVKDSSNAKLNHTKIIAEVLRQYPHIVKGHKNIKLKIMPNTPAAPTEKSAPATVKPPANQSSATTSPHKKLHVSFKADKSTPLITAQQKAASSQQKSGTSQTTGNQGTGANPPANTAAAQKRRIDSKTMHALIAQGAENTTGPWLCLRCGVNGRPISIPSYRGFRRHLINTHKETIDPALCEHCGWRSVNNRELHFHMYMEHQTKSLLYTFAECALCNQSYRTKGELEAHINEVHTDDNKQQCIYCNKVFEQELQLYRHMKSYHKEQALEDGIIDETDEEFLGSQDEEEEAEGDEEQEPEQTGKVRILSDISLPATSAITVQQAQQEQLQEEDVEQVQQEVKFVGADGNEVELTDEQRKEILSQLNQQQAGATAGGVVMVLSEPEAEHVKQETDEKSLAGTEEEYDDSQIYSELGAADSVESAKKNIADESKESIDNLEWAENLIAESEEQSNKEPKSDKPRDDISEKLKELTGDWTEDENDDDVDDKPATAELASELANKDPEPTVHEEEDDIDLALQSLHKGPEEATEEKASEESVTSADDAVDAVPNINSQPEKMDVDSEAADEKASKAEVQIKKEAELENDQEEFIKEDSPIPHSDSVAELREAVTASEGEDDVHLEADNIRKELLDELIAEAEKPDQEKDIVQSEENATTEALDRSVTDEDDLVPPTQVSTEQMEIDEPAAEKAAENNEDTRTADEKEAVEDKPNQTQDVTTAEKPTLESAKAGDEATSGEAASVDKVKSLISEWGDDDEDEDENGVSAAAKEEL
notes: Centrosomal protein 190 (CP190), universal insulator protein of Drosophila; endogenous protein in embryonic nuclear extract; source: endogenous, nuclear extract of 0-24 h Drosophila embryos
B3: Modifier of mdg4 [Mod(mdg4)] 67.2 kDa isoform [Mod(mdg4)67.2] (natural protein, UniProt Q86B87 1-610, looked up)
chain: MADDEQFSLCWNNFNTNLSAGFHESLCRGDLVDVSLAAEGQIVKAHRLVLSVCSPFFRKMFTQMPSNTHAIVFLNNVSHSALKDLIQFMYCGEVNVKQDALPAFISTAESLQIKGLTDNDPAPQPPQESSPPPAAPHVQQQQIPAQRVQRQQPRASARYKIETVDDGLGDEKQSTTQIVIQTTAAPQATIVQQQQPQQAAQQIQSQQLQTGTTTTATLVSTNKRSAQRSSLTPASSSAGVKRSKTSTSANVMDPLDSTTETGATTTAQLVPQQITVQTSVVSAAEAKLHQQSPQQVRQEEAEYIDLPMELPTKSEPDYSEDHGDAAGDAEGTYVEDDTYGDMRYDDSYFTENEDAGNQTAANTSGGGVTATTSKAVVKQQSQNYSESSFVDTSGDQGNTEAQAATSASATKIPPRKRGRPKTKVEDQTPKPKLLEKLQAATLNEEASEPAVYASTTKGGVKLIFNGHLFKFSFRKADYSVFQCCYREHGEECKVRVVCDQKRVFPYEGEHVHFMQASDKSCLPSQFMPGESGVISSLSPSKELLMKNTTKLEEADDKEDEDFEEFEIQEIDEIELDEPEKTPAKEEEVDPNDFREKIKRRLQKALQNKKK
notes: Modifier of mdg4, the 67.2 kDa isoform, Drosophila; The gene has many isoforms; the 67.2 kDa isoform is meant; to be checked; source: endogenous, nuclear extract of 0-24 h Drosophila embryos

Columns and labels:
Assay in all cases: co-IP; 500 ug nuclear extract of 0-24 h Drosophila embryos incubated overnight at 4 C with antiserum (anti-Su(Hw), anti-CP190, anti-Mod(mdg4)67.2 or anti-M1BP; normal serum as control) cross-linked to Protein A or G Sepharose; washed twice with HBSMT and once with HBSM; western blotting; efficiency as percent of total input protein
Conditions in all cases: partners not purified
[1] = target: B3
[2] = target: T1, Suppressor of Hairy wing [Su(Hw)]
[3] = target: B2
[4] = target: B1

Row | percent of total protein immunoprecipitated with anti-Mod(mdg4)67.2 [1] [%] | percent of total protein immunoprecipitated with anti-Su(Hw) [2] [%] | percent of total protein immunoprecipitated with anti-CP190 [3] [%] | percent of total protein immunoprecipitated with anti-M1BP [4] [%] | Binder
1 | 3 | 5.3 | 3.8 | – | B1
2 | 11 | 5.2 | – | 3.8 | B2
3 | – | 1.9 | 8.2 | 1.4 | B3
